According to PMC3883592:

Molecular target: mEPCR on mouse brain microvascular endothelial cells (bEND3) (mouse (endogenous in bEND3)) (UniProt Q64695)
Assay: radioligand binding

Chain of mEPCR on mouse brain microvascular endothelial cells (bEND3) (mouse (endogenous in bEND3)) (Q64695 18-242): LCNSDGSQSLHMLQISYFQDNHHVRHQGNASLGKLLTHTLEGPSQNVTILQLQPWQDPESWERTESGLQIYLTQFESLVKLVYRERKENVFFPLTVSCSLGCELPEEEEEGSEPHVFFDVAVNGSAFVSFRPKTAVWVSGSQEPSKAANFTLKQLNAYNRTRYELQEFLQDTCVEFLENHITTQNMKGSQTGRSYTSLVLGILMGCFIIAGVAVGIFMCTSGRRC

amount bound as percent of human APC at 50 nM [%]	fold increase of binding with 1 mM Mg2+ over Ca2+ alone [fold]	Kd [nM]	Substance
30	3	–	Mouse APC (enzyme)
–	10	23	Recombinant activated human protein C (Xigris) (enzyme)
